Assay [1] deals with HA from A/New York/107/2003 (Influenza A virus A/New York/107/2003 …, UniProt B2LVD7, strain). Kind of assay: ELISA. (In general: An ELISA detects its analyte on a solid surface through an enzyme-linked reagent.)
In assay [2] the target is monomeric HA head domain from H1 A/California/07/2009 (influenza A virus A/California/07/2009 …, UniProt C3W5X2). The assay can be described thus: BLI. In general terms: BLI is a label-free optical method that tracks binding on a fibre tip over time.
For assay [3], the target named is trimeric recombinant HA from H1 A/California/04/2009 (Influenza A virus A/California/04/2009 …, UniProt C3W5S1). Kind of assay: BLI.
For a further assay, the target named is IN/05 HA (Influenza A virus A/Indonesia/5/2005 …, UniProt C5MRF2, strain). The assay can be described thus: ELISA.
The target in assay [4] is head domain of VN/04 HA (A/Vietnam/1203/2004 H5N1), monomeric (Influenza A virus A/Vietnam/1203/2004 …, strain). Kind of assay: HDX-MS.

The record followed here is doi:10.1101/2020.12.31.424868 (bioRxiv, 2020).

B1: FluA-151 (antibody, V domains shown)
VH: QELLVESGGGVVQPGRSLRLSCVGSGFTFRTYGMHWVRQAPGRRPEWVALISNDGSREYYADSVKGRFTISRDNSRNTLYLQMNSLTVADTAVYYCAKFIPDPNYGEFYFHHWGQGTLVTVSS
VL: DIQMTQSPSSLSASVEDRVTITCRASQSINKYLNWYQQKPGKAPKLLIYAADNLQDAVPSRFSGSGSGTDFTLTITGLHPDDLATYYCQQSYTIPPTFGHGTKVEIK
B1: the binding result in assay [1] was “no binding”.

B2: mAb 5J8 (antibody, V domains shown)
VH: EVQLVESGPGLVKPSDILSLTCAVSGYSISSNYYWGWIRQPPGKGLEWIGSIYHSGSTYYKPSLESRLGISVDTSKNQFSLKLSFVSAADTAVYYCARHVRSGYPDTAYYFDKWGQGTLVTVSS
VL: SYVLTQPPSVSVAPGETARISCGGNNIGTKVLHWYQQTPGQAPVLVVYDDSDRPSGIPERFSGSNSGNTATLTISRVEVGDEADYYCQVWDISTDQAVFGGGTKLTVL
On to B2, for which the binding result in assay [2] and in assay [3] was “binds” throughout.

B3: mAb H5.28, hybridoma-generated IgG (antibody, V domains shown)
VH: EVQLVESGGGLVQPGGSLRLSCAASGFTFSTYWMTWVRQAPGKGLEWVANINQDGGEKYFVDSVKGRFTISRDNAKNSLFLQMNTLRAEDTAVYYCARGFLERLLLGRQGAYYYGMDVWGQGTTVTVSS
VL: DIQMTQSPSSLSASVGDRVSMTCRASQIISSSLNWYQQKPGKAPKLLIYAASNLQSGVPSRFSGSGSGTDFTLTISSLQPEDFATYYCQQSYSTPPELTFGGGTKVEIK
Turning to B3, the binding result with IN/05 HA is given as “binds”.

B4: mAb H5.31, hybridoma-generated IgG (antibody, V domains shown)
VH: EVQLVQSGGGLVQPGGSLRLSCEASRFTSSSYWITWVRQAPGKGLEWVANIKQDGSEKYFVDSVKGRFTISRDNASNSLYLQMSSLRAEDTAVYYCARGFLERLLLGRQGAYYYGMDVWGQGTTVTVSS
VL: DIVMTQSPFSLSASVGDRVTMTCRASQSISSSLNWYQQKPGKAPKLLIYAASNLQSGVPSRFSGSGSGTDFTLTISSLQPEDFATYYCQQSYTMPPELTFGGGTKVEIK
On to B4, for which the binding result in the assay with IN/05 HA is “binds”.

B5: H5.28 Fab (recombinant) (Fab, V domains shown)
VH: EVQLVESGGGLVQPGGSLRLSCAASGFTFSTYWMTWVRQAPGKGLEWVANINQDGGEKYFVDSVKGRFTISRDNAKNSLFLQMNTLRAEDTAVYYCARGFLERLLLGRQGAYYYGMDVWGQGTTVTVSS
VL: DIQMTQSPSSLSASVGDRVSMTCRASQIISSSLNWYQQKPGKAPKLLIYAASNLQSGVPSRFSGSGSGTDFTLTISSLQPEDFATYYCQQSYSTPPELTFGGGTKVEIK
As for B5, the binding result in assay [4] is recorded as “binds”.

B6: FluA-20 (antibody, V domains shown)
VH: QVQLEESGPGLVKPSETLSLTCSVSGVSVTSDIYYWTWIRQPPGKGLEWIGYIFYNGDTNYNPSLKSRVTMSIDTSKNEFSLRLTSVTAADTAVYFCARGTEDLGYCSSGSCPNHWGQGTLVTVSS
VL: DIVMTQSPSSLSASIGDRVTITCRPSQNIRSFLNWFQHKPGKAPKLLIYAASNLQSGVPSRFSGSGSGTEFTLTIRSLQPEDFATYYCQQSYNTPPTFGQGTKVEIK
Consider B6, for which the binding result in assay [1] is “no binding”.
